Results reported in patent US20050026841A1, “Hab18g/cd147 its antagonist and application” (priority 2001, published 2005).
Marks after values point to notes of the source that are not given here. Where no end group is shown, it is not given here.

T1: HAb18G/CD147 on HHCC hepatocellular carcinoma cells (human, UniProt P35613 140-385, glycosylated (mode not specified))
T1 sequence: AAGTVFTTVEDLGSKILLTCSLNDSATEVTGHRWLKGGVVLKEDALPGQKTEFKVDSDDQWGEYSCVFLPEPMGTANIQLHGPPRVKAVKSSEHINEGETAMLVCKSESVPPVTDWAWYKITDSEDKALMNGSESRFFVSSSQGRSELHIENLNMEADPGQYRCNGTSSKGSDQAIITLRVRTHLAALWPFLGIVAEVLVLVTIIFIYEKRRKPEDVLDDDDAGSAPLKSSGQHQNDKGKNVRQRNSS


Legend:
HHCCs = test: reconstituted basement membrane invasion assay with antagonistic peptides; format: cell-based, human; conditions: for inhibitory rate (%): invasion of HHCCs through reconstituted basement membrane, 20 hours, vs control; for inhibition of hepatocellular carcinoma cells invasion and metastasis (in words): reconstituted basement membrane invasion
Experimental: Matrigel (main component was type IV collagen, BD Company) was added onto the inner surface of Boyden Chambers (Millipore) to form the reconstituted basement membrane. Cells (HHCC cells and human fibroblasts) and antisense RNA were added and the chambers were put in the 24-well plates and co-cultured overnight. Cells infiltrated through the reconstituted basement membrane and appeared on the outer surfaces of the membrane were stained and counted under high-power microscope.
1. in vitro studies: reconstituted basement membrane invasion was employed to test the effects of the antagonistic peptides for HAb18G/CD147 on the invasive ability of HHCCs. Antagonistic peptides were co-cultured with HHCCs and fibroblasts on the reconstituted basement membrane for 20 hours. Cells infiltrated through the reconstituted basement membrane were counted under high-power microscope and the inhibitory rate of the antagonistic peptides was calculated.

HHCC cells = test: tumorigenesis of HHCC cells inoculated in mice; format: in vivo; conditions: i.v. 2.5 mg/kg; for inhibitory effect on tumorigenesis of hepatocellular carcinoma cells: 200 μl HHCC cells (1×10^6/ml)
Experimental: 2. in vivo studies: The mice were inoculated with 200 μl HHCC cells (1×10^6/ml) and were then treated with HAb18G/CD147 antagonistic peptides (i.v.) at the dose of 2.5 mg/kg weight. […] Moreover, the average survival time of mice in therapeutic group was two times as long as that of the control group. A high metastatic human hepatocellular carcinoma cell line MHCC97-H was transplanted into the liver of nude mice to investigate the anti-metastasis effects of APs. […] The inhibitory effects of HAb18G/CD147 antagonistic peptides on angiogenesis in chick embryo chorioallantoic membrane (CAM) as well as on angiogenesis induced by Matrigel plug were detected.

[1] = molecular target: T1, HAb18G/CD147 on HHCC hepatocellular …; test: cell-based or functional assay
human fibroblasts = test: gelatin zymography of human fibroblasts stimulated by purified HAb18G/CD147; format: cell-based; conditions: MMP-9, MMP-2 and MT1-MMP
Experimental: The experiments were carried out as follows:
Purified HAb18G/CD147 was added to the cultured human fibroblasts and the supernatant of the culture was collected and then subjected to SDS-PAG electrophoresis in a separation gel containing 1 mg/ml gelatin. Different from the conventional SDS-PAGE, no DTT was added to the sample and furthermore, the sample was not boiled. After electrophoresis, the gel was washed twice (45 min/each time) at room temperature and washed twice (20 min/each time) with 0.1 mol/L NaCl, and then incubated for 24 hours in an incubation solution at 37° C. The gel was stained with 0.5% (w/v) Coomassie Blue and then destained. MMPs were detected as clear bands against a blue background.

| Molecule | inhibitory rate (%) (HHCCs) | inhibition of hepatocellular carcinoma cells invasion and metastasis (in words) (HHCCs) | infiltrative cells [1] [cells] | inhibitory rate (%) [1] [%] | further results |
| --- | --- | --- | --- | --- | --- |
| MHKHPHGSQGPT [AP-8, antagonistic 12-mer peptide for HAb18G/CD147] | 68.32^a % | significantly inhibited |  |  |  |
| YKLPGHHHHYRP [AP-9, antagonistic 12-mer peptide for HAb18G/CD147] | 81.19^a % | significantly inhibited |  |  |  |
| GHWHNHRHQAPL [AP-3, antagonistic 12-mer peptide for HAb18G/CD147] |  | significantly inhibited |  |  |  |
| MTHDPVISLPTT [AP-1, antagonistic 12-mer peptide for HAb18G/CD147] | 78.2^a % | significantly inhibited |  |  | inhibitory effect on tumorigenesis of hepatocellular carcinoma cells (HHCC cells): significant inhibitory effects |
| YPFHHKHWHRPN [AP-6, antagonistic 12-mer peptide for HAb18G/CD147] | 62.38^a % | significantly inhibited |  |  | inhibitory effect on tumorigenesis of hepatocellular carcinoma cells (HHCC cells): significant inhibitory effects; tumor formation on the 11th day from inoculation (HHCC cells; HHCC cells, tumors formed in all control mice): no tumor formed |
| ANIVPIHANHFQ [AP-7, antagonistic 12-mer peptide for HAb18G/CD147] | 56.44^a % | significantly inhibited |  |  |  |
| GHWHNHRHQAPL [HAb18G/CD147 binding/antagonistic peptide (3)] |  |  | 2 | 90.1 |  |
| MTHDPVISLPTT [HAb18G/CD147 binding/antagonistic peptide (1)] |  |  | 4.4 | 78.2 |  |
| YPFHHKHWHRPN [HAb18G/CD147 binding/antagonistic peptide (6)] |  |  | 7.6 | 62.4 |  |
| HAb18G/CD147: hepatocellular carcinoma-associated antigen of 269 amino acids, purified from HHCC cells by HAb18 affinity chromatography (protein, listed as Homo sapiens) MAAALFVLLGFALLGTHGASGAAGTVFTTVEDLGSKILLTCSLNDSATEVTGHRWLKGGVVLKEDALPGQKTEFKVDSDDQWGEYSCVFLPEPMGTANIQLHGPPRVKAVKSSEHINEGETAMLVCKSESVPPVTDWAWYKITDSEDKALMNGSESRFFVSSSQGRSELHIENLNMEADPGQYRCNGTSSKGSDQAIITLRVRTHLAALWPFLGIVAEVLVLVTIIFIYEKRRKPEDVLDDDDAGSAPLKSSGQHQNDKGKNVRQRNSS |  |  |  |  | MMPs secreted by human fibroblasts after stimulation (human fibroblasts): secreted three different MMPs |
| MHKHPHGSQGPT [HAb18G/CD147 binding/antagonistic peptide (8)] |  |  | 6.4 | 68.3 |  |
| LHRHSHGHSYKS [HAb18G/CD147 binding/antagonistic peptide (2)] |  |  | 28 | -38.6 |  |
| KYPHQHLHMHDS [HAb18G/CD147 binding/antagonistic peptide (4)] |  |  | 12.2 | 39.6 |  |
| IGWHYYLRTQHS [HAb18G/CD147 binding/antagonistic peptide (5)] |  |  | 23.2 | -14.8 |  |
| ANIVPIHANHFQ [HAb18G/CD147 binding/antagonistic peptide (7)] |  |  | 8.8 | 56.4 |  |
| YKLPGHHHHYRP [HAb18G/CD147 binding/antagonistic peptide (9)] |  |  | 3.8 | 81.2 |  |
